The experiment deals with parathyroid hormone. Nature of the experiment: In vivo inhibition of PTH-stimulated urinary cyclic AMP excretion in thyroparathyroidectomized vitamin D deficient rats. The conditions noted are these: same experiment as FIG. 1. As for the experimental part: The compound [Tyr-34]bPTH(7-34)amide was administered in vivo as an inhibitor of PTH stimulated biological activities. The effectivenss of the treatment was measured by measuring the urinary phosphate and cyclic AMP, standard procedures well known in endocrinology as valid measure of PTH activity. The dosage of PTH analogues used varied from more than 3.0 μg/Kg/hr to less than 15 mg/Kg/hr, optimally between 0.3 mg/Kg/hr and 1.5 mg/Kg/hr. Single bolus dosages were occassionally utilized as indicated containing the equivalent of many hours of the infusion procedure.
Male weanling Holtzman rats were maintained on a purified vitamin D deficient diet containing 0.44% calcium and 0.30% phosphorous for 7 weeks. At this time, the rats weighed 130-170 g. Thyroparathyroidectomy of the vitamin D deficient rats was preformed under anesthesia with ketamin hydrochloride injected intratraperitoneally. The femoral vein was cannulated with a heparin-treated polyethylene tube, and the blood was collected via the catheter for determination of blood chemistries. When needed both femoral veins were cannulated. A polyethylene catheter was also inserted into the urinary bladder via the ventral approach. […]
FIG. 2 is an experiment identical to that shown in FIG. 1, however, urinary cyclic AMP is now measured instead of urinary phosphate. […]

The values below come from patent US4423037A, “Inhibitors of peptide hormone action” (The General Hospital Corporation, priority 1982, dated 1983).

B1: bovine parathyroid hormone (protein, UniProt P01268 32-115, looked up)
Parathyroid hormone: AVSEIQFMHNLGKHLSSMERVEWLRKKLQDVHNFVALGASIAYRDGSSQRPRKKEDNVLVESHQKSLGEADKADVDVLIKAKPQ
modifications: Parathyroid hormone
notes: native 84-amino acid bovine parathyroid hormone, infused as the agonist
As to B1, the “effect on urine cyclic AMP production, substance administered alone (FIG. 2)” value is reported as “marked effect”.
